Results taken from publication doi:10.1101/2022.12.21.521430 (bioRxiv, 2022).

Target: Gallus gallus TRPV4 isolated ankyrin repeat domain (residues 135-382) (Gallus gallus, UniProt A0A1D5PXA5 135-382)
Assay: cross-linking

Gallus gallus TRPV4 isolated ankyrin repeat domain (residues 135-382), sequence (A0A1D5PXA5 135-382): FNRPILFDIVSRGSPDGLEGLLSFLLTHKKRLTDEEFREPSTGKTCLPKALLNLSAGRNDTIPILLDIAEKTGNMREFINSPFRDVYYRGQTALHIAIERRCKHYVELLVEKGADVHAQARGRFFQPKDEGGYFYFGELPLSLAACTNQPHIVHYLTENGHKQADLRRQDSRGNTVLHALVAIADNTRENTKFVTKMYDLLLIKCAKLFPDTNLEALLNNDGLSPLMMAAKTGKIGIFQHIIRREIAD

binding result: binds
B1: Gallus gallus TRPV4 isolated intrinsically disordered region (residues 2-134) (domain or fragment, UniProt A0A1D5PXA5 2-134, looked up)
chain: ADPEDPRDAGDVLGDDSFPLSSLANLFEVEDTPSPAEPSRGPPGAVDGKQNLRMKFHGAFRKGPPKPMELLESTIYESSVVPAPKKAPMDSLFDYGTYRQHPSENKRWRRRVVEKPVAGTKGPAPNPPPILKV
